Columns and labels:
Human IL-8 [1] = test: Human IL-8 mediated neutrophil chemotaxis, 96-well chamber, calcein AM-labeled neutrophils; format: cell-based
Experimental: Human neutrophils were isolated, counted and resuspended at 5×10^6 cells/ml in Hank's balanced salt solution (abbreviated HBSS; without calcium and magnesium) with 0.1% bovine serum albumin. The neutrophils were labeled by adding calcein AM (Molecular Probe, Eugene, Oreg.) at a final concentration of 2.0 μM. Following a 30 minute incubation at 37° C., cells were washed twice with HBSS-BSA and resuspended at 5×10^6 cells/ml.
Chemotaxis experiments were carried out in a Neuro Probe (Cabin John, Md.) 96-well chamber, model MBB96. Experimental samples (buffer only control, IL-8 alone or IL-8 +Fabs) were loaded in a Polyfiltronics 96-well View plate (Neuro Probe Inc.) placed in the lower chamber. […]
The relative number of neutrophils migrating through the filter (Neutrophil migration index) was determined by measuring fluorescence intensity of the filter and the fluorescence intensity of the contents of the lower chamber and adding the two values together. Fluorescence intensity was measured with a CytoFluor 2300 fluorescent plate reader (Millipore Corp. Bedford, Mass.) configured to read a Corning 96-well plate using the 485-20 nm excitation filter and a 530-25 emission filter, with the sensitivity set at 3.

[2] = molecular target: T1, recombinant human IL-8, (ser-IL-8)72 (human, UniProt P10145); test: competitive binding RIP with unlabeled IL-8, Scatchard analysis
[3] = molecular target: T1, recombinant human IL-8, (ser-IL-8)72
[4] = Isoelectric focusing (IEF) pattern; format: physicochemical; conditions: IEF polyacrylamide gel pH 3-9
Experimental: The isoelectric focusing (IEF) pattern of each mAb was determined by applying purified antibodies on an IEF polyacrylamide gel (pH 3-9, Pharmacia) using the Fast gel system (Pharmacia, Piscataway, N.J.). The IEF gel was pretreated with pharmalyte containing 1% Triton X100 (Sigma, St. Louis, Mo.) for 10 min before loading the samples. The IEF pattern was visualized by silver staining according to the instructions from the manufacturer. All of the monoclonal antibodies had different IEF patterns, confirming that they originated from different clones.

IL-8 [5] = test: Radioimmune precipitation test (RIP): capture of soluble 125I-IL-8; format: binding, human
Experimental: The ability of these monoclonal antibodies to capture soluble ^125 I-IL-8 was assessed by a radioimmune precipitation test (RIP). Briefly, tracer ^125 I-IL-8 (4×10^4 cpm) was incubated with various dilutions of the monoclonal anti-IL-8 antibodies in 0.2 ml of PBS containing 0.5% BSA and 0.05% Tween 20 (assay buffer) for 1 hr at room temperature. One hundred microliters of a predetermined concentration of goat anti-mouse Ig antisera (Pel-Freez, Rogers, Ariz.) were added and the mixture was incubated at room temperature for 1 hr. Immune complexes were precipitated by the addition of 0.5 ml of 6% polyethylene glycol (M.W. 8000) kept at 4° C. After centrifugation at 2,000×g for 20 min at 4° C., the supernatant was removed by aspiration and the radioactivity remaining in the pellet was counted in a gamma counter. Percent specific binding was calculated as (precipitated cpm--background cpm)/(total cpm--background cpm).

IL-8 [6] = test: Receptor binding assay: 125I-IL-8 bound to human neutrophils in presence of mAbs; conditions: 1:25 molar ratio of IL-8 to mAb
Experimental: To assess the ability of these monoclonal antibodies to neutralize IL-8 activity, the amount of ^125 I-IL-8 bound to human neutrophils in the presence of various amounts of culture supernatants and purified monoclonal antibodies was measured. Neutrophils were prepared by using Mono-Poly Resolving Medium (M-PRM) (Flow Lab. Inc., McLean, Va). Briefly fresh, heparinized human blood was loaded onto M-PRM at a ratio of blood to medium, 3.5:3.0, and centrifuged at 300×g for 30 min at room temperature. Neutrophils enriched at the middle layer were collected and washed once in PBS. Such a preparation routinely contained greater than 95% neutrophils according to the Wright's Giemsa staining. The receptor binding assay was done as follows. 50 μl of ^125 I-IL-8 (5 ng/ml) was incubated with 50 μl of unlabeled IL-8 (100 μg/ml) or monoclonal antibodies in PBS containing 0.1% BSA for 30 min at room temperature. The mixture was then incubated with 100 μl of neutrophils (10^7 cells/ml) for 15 min at 37° C. The ^125 I-IL-8 bound was separated from the unbound material by loading mixtures onto 0.4 ml of PBS containing 20% sucrose and 0.1% BSA and by centrifugation at 300×g for 15 min. The supernatant was removed by aspiration and the radioactivity associated with the pellet was counted in a gamma counter.

IL-8 [7] = test: Neutrophil chemotaxis induced by IL-8, Boyden chamber method; format: cell-based, human; conditions: 1:10 ratio of IL-8 to mAb; IL-8 20 nM
Experimental: The ability of the anti-IL-8 antibodies to block neutrophil chemotaxis induced by IL-8 was tested as follows. Neutrophil chemotaxis induced by IL-8 was determined using a Boyden chamber method (Larsen, et al., Science 243:1464 (1989)). One hundred μl of human neutrophils (10^6 cells/ml) resuspended in RPMI containing 0.1% BSA were placed in the upper chamber and 29 μl of the IL-8 (20 nM) with or without monoclonal antibodies were placed in the lower chamber. Cells were incubated for 1 hr at 37° C. Neutrophils migrated into the lower chamber were stained with Wright's Giemsa stain and counted under the microscope (100×magnification). Approximately 10 different fields per experimental group were examined. Neutralizing monoclonal antibodies 5.12.14 and 4.1.3 blocked almost 70% of the neutrophil chemotactic activity of IL-8 at 1:10 ratio of IL-8 to mAb.

Human IL-8 [8] = test: IL-8 mediated release of elastase by neutrophils (mAb 5.12.14); format: cell-based; conditions: 1:1 ratio of IL-8 to mAb
Experimental: One of the antibodies, mAb 5.12.14, was further studied to determine whether it could block the IL-8 mediated release of elastase by neutrophils. Briefly, human neutrophils were resuspended in Hanks balanced salt solution (Gibco, Grand Island, N.Y.) containing 1.0% BSA, Fraction V (Sigma, St. Louis, Mo.), 2 mg/ml alpha-D-glucose (Sigma), 4.2 mM sodium bicarbonate (Sigma) and 0.01M HEPES, pH 7.1 (JRH Bioscience, Lenexa, Kans.). A stock of cytochalasin B (Sigma) was prepared (5 mg/ml in dimethylsulfoxide (Sigma) and stored at 2°-8° C. Cytochalasin B was added to the neutrophil preparation to produce a final concentration of 5 μg/ml, and incubated for 15 min at 37° C. Human IL-8 was incubated with mAb 5.12.14 (20 μl), or a negative control antibody, in 1 ml polypropylene tubes (DBM Scientific, San Fernando, Calif.) for 30 min at 37° C. The final assay concentrations of IL-8 were 50 and 500 nM. The monoclonal antibodies were diluted to produce the following ratios (IL-8:Mab): 1:50, 1:10, 1:2, 1:1, and 1:0.25. Cytochalasin B-treated neutrophils were added (100 μl/tube) and incubated for 2 hours at 25° C. The tubes were centrifuged (210×g, 2°-8° C.) for 10 min, and supernatants were transferred to 96 well tissue culture plates (30 μl/well). […] Absorbance was measured at 405 nm (SLT 340 ATTC plate reader, SLT Lab Instruments, Austria).

IL-8 [9] = test: Competitive binding ELISA (epitopes), biotinylated mAb vs unlabeled mAb; set-up: species or system human; conditions: ratio of biotinylated mAb to unlabeled mAb 1:100
Experimental: To assess whether these monoclonal antibodies bound to the same epitopes, a competitive binding ELISA was performed. […] Thus, mAb 4.1.3 and mAb 5.2.3 bind to a different epitope(s) than the epitope recognized by monoclonal antibodies 12.3.9, 4.8 and 5.12.14.

B1: 6G.4.25 Fab (antibody)
heavy: EIQLQQSGPELMKPGASVKISCKASGYSFSSHYMHWVKQSHGKSLEWIGYIDPSNGETTYNQKFKGKATLTVDTSSSTANVHLSSLTSDDSAVYFCARGDYRYNGDWFFDVWGAGTTVTVSSASTKGPSVFPLAPSSKSTSGGTAALGCLVKDYFPEPVTVSWNSGALTSGVHTFPAVLQSSGLYSLSSVVTVPSSSLGTQTYICNVNHKPSNTKVDKKVEPKSCDKTHT
light: DIVMTQTPLSLPVSLGDQASISCRSSQSLVHGIGNTYLHWYLQKPGQSPKLLIYKVSNRFSGVPDRFSGSGSGTDFTLRISRVEAEDLGLYFCSQSTHVPLTFGAGTKLELKRAVAAPTVFIFPPSSEQLKSGTASVVCLLNNFYPREAKVQWKVDNALQSGNSQESVTEQDSKDSTYSLSSTLTLSKADYEKHKVYACEVTHQGLSSPVTKSFNRGEC
inhibition of human IL-8 mediated neutrophil chemotaxis (Human IL-8 [1]): inhibition

B2: anti-IL-8 monoclonal antibody 5.12.14 (antibody, V domains shown)
VH: EVQLVESGGGLVPPGGSLKLSCAASGFIFSSYGMSWVRQTPGKSLELVATINNNGDSTYYPDSVKGRFTISRDNAKNTLYLQMSSLKSEDTAMFYCARALISSATWFGYWGQGTLVTVSA
VL: DIVMTQSQKFMSTSVGDRVSVTCKASQNVGTNVAWYQQKPGQSPKALIYSSSYRYSGVPDRFTGSGSGTDFTLTISHVQSEDLADYFCQQYNIYPLTFGPGTKLELKR
Kd [2]: 0.3 nM | neutrophil chemotaxis induced by IL-8 (Boyden chamber) [3]: 70%

B3: mAb 5.12.14: murine monoclonal antibody against human IL-8, isotype IgG2a, hybridoma ATCC HB 11553 (antibody, V domains shown)
VH: ASGFIFSSYGMSWVRQTPGKSLELVATINNNGDSTYYPDSVKGRFTISRDNAKNTLYLQMSSLKSEDTAMFYCARALISSATWFGYWGQGTLVTVSAAKTTAPSVYP
VL: KASQNVGTNVAWYQQKPGQSPKALIYSSSYRYSGVPDRFTGSGSGTDFTLTISHVQSEDLADYFCQQYNIYPLTFGPGTKLELKRADAAPPTVSIFPPFE
pI [4]: 6.2-7.4 | capture of soluble 125I-IL-8 in the RIP (IL-8 [5]): very efficiently | % Specific Binding to IL-8 (IL-8 [5]; RIP, soluble 125I-IL-8): 98% | inhibition of the binding of IL-8 to human neutrophils (IL-8 [6]): greater than 85% | block of the neutrophil chemotactic activity of IL-8 (IL-8 [7]): ~70% | block of release of elastase from neutrophils (Human IL-8 [8]): effectively block | inhibition of binding of biotinylated mAb 4.1.3 by unlabeled mAb (IL-8 [9]): not by mAb 5.12.14 | inhibition of binding of biotinylated mAb 5.12.14 by unlabeled mAb (IL-8 [9]): significantly inhibited

B4: 5.12.14 Fab (antibody)
heavy: EVQLVESGGGLVPPGGSLKLSCAASGFIFSSYGMSWVRQTPGKSLELVATINNNGDSTYYPDSVKGRFTISRDNAKNTLYLQMSSLKSEDTAMFYCARALISSATWFGYWGQGTLVTVSAASTKGPSVFPLAPSSKSTSGGTAALGCLVKDYFPEPVTVSWNSGALTSGVHTFPAVLQSSGLYSLSSVVTVPSSSLGTQTYICNVNHKPSNTKVDKKVEPKSCDKTHT
light: B3 VL
inhibition of human IL-8 mediated neutrophil chemotaxis (Human IL-8 [1]): inhibition
